Data set [1] in a line: Chemical resistance: rate of change in antibody binding amount of immobilized support before and after alkali treatment. To be noted: for Chemical resistance (rate of change in the binding amount): peptide-immobilized HiTrap support, human IgG binding amount at 10% leak, before and after 0.05 M aqueous NaOH for 6 hours at 25° C. In kind it is physicochemical. Here is the method: 1 mL of HiTrap NHS-activated HP Columns (coupling columns for ligand immobilization, manufactured by GE Healthcare) (HITRAP is a registered trademark) was reacted with 1 mL of 10 mg/mL cyclic peptide solution, which was prepared by dissolving the cyclic peptide 1 in an immobilization buffer (10% DMSO in 200 mM NaHCO3, 500 mM NaCl, pH 8.3), for 1 hour at 25° C. The reaction product was blocked by an aqueous ethanolamine solution and washed, thereby obtaining a cyclic peptide 1-immobilized support. Hereinafter, the obtained immobilized support will be referred to as “immobilized support A”.
The immobilized support A prepared in (4) described above was connected to a chromatography system AKTA avant 25 (manufactured by GE Healthcare) (AKTAAVANT is a registered trademark), and the antibody binding amount was measured. The columns were equilibrated using an equilibration solution (20 mM phosphoric acid buffer, 150 mM NaCl, pH 7.4), and then 20 mL of a 5 mg/mL human IgG antibody standard buffer solution (20 mM phosphoric acid buffer, 150 mM NaCl, pH 7.4) was injected thereinto at a flow rate of 0.21 mL/min. Thereafter, the columns were washed with 5 mL of a postloading wash solution (20 mM phosphoric acid buffer, 150 mM NaCl, pH 7.4) caused to flow at the same flow rate and then washed with 5 mL of a pre-elution wash solution (20 mM phosphoric acid buffer, 1 M NaCl, pH 7.4) at the same flow rate. Then, 5 mL of an elution solution (100 mM citric acid buffer, pH 3.2) was caused to flow at the same flow rate. Subsequently, 5 mL of a cleaning in place (CIP) solution (0.1 M sodium hydroxide) was caused to flow at the same flow rate, and then 5 mL of a reequilibration solution (20 mM phosphoric acid buffer, 150 mM NaCl, pH 7.4) was caused to flow at the same flow rate. At this time, by using an immunoglobulin G (IgG) elution peak obtained by monitoring absorbance at 280 nm, the amount of antibodies binding to the support until 10% of the antibody stock solution leaked out of the support was measured as the antibody binding amount. Then, the immobilized support A was filled with a 0.05 M aqueous NaOH solution for 6 hours at 25° C. and left to stand, the antibody binding amount of the support was then measured in the same manner, and a rate of change in the binding amount was calculated from the antibody binding amount before and after the alkali treatment.

In data set [2] the test system is human immunoglobulin G (IgG) antibodies. Nature of the data set: Relative binding activity to human IgG antibodies by surface plasmon resonance on immobilized sensor chip. The following applies: SPR (Biacore 3000, CM5 chip), 3,000 nM human IgG for 10 minutes at 25° C., relative to the cyclic peptide of Comparative Example 1 regarded as 1. Here is the method:
A commercially available CM5 (carboxymethyl dextran introduction-type, manufactured by GE Healthcare) sensor chip was set in Biacore 3000 (Biacore is a registered trademark) as a surface plasmon resonance device manufactured by GE Healthcare, a 4-(2-hydroxyethyl)-1-piperazineethanesulfonic acid (HEPES) buffer solution (20 mM HEPES-HCl, 150 mM NaCl, pH 7.4) for surface plasmon resonance (SPR) was stabilized at a flow rate of 10 μL/min, and 70 μL of an aqueous mixed solution of 0.2 M 1-(3-Dimethylaminopropyl)-3-ethylcarbodiimide (EDC) and […] of N-Hydroxysuccinimide (NHS) were injected thereinto. Thereafter, 100 μL of a sample solution of the cyclic peptide 1, which was diluted with a HEPES buffer solution at 0.2 g/L and treated with a polytetrafluoroethylene (PTFE) filter (manufactured by Advantec MFS, Inc.) having a diameter of 0.20 μm, was supplied to the sensor chip. Then, a blocking treatment was then performed on the sample solution by using an aqueous ethanolamine solution, and the sensor chip was washed with an aqueous sodium hydroxide solution, thereby performing immobilization. Likewise, 70 μL of an aqueous mixed solution of 0.2 M EDC and 0.04 M NHS was added to the same sensor chip without immobilizing the sample in another flow channel of the sensor chip, and then the blocking treatment and the washing treatment were performed. Hereinafter, the obtained immobilized sensor chip will be referred to as “immobilized sensor chip A”.
At 25° C., 3,000 nM of human immunoglobulin G (IgG) antibodies were added for 10 minutes to the immobilized sensor chip A prepared in (2) described above. Then, the antibody binding amount in the flow channel in which the cyclic peptide was immobilized immediately after the addition and in the flow channel in which the cyclic peptide was not immobilized was measured. From the difference in the antibody binding amount between the flow channel in which the cyclic peptide was immobilized and the flow channel in which the cyclic peptide was not immobilized and the amount of the immobilized cyclic peptide, the activity of the cyclic peptide was calculated. Furthermore, by regarding the activity of a cyclic peptide 5 in Comparative Example 1 as 1, the relative binding activity with respect to the human IgG antibodies was calculated.

Starred links: 1 amine or outer side, 2 acyl side, 3 side chain; linkers in the order of their positions; H or OH if unused. Positions of bridges follow the written chain, without caps; N, C: chain ends. Non-standard residues stand in square brackets, D forms with d. Primed or numbered codes have the meaning given here. No end group written: not given here. Bpg″ = L-bishomopropargylglycine residue, C#CCCC[C@H](N[*:1])C(=O)[*:2]; Lys(N3) = [N-]=[N+]=NCCCC[C@H](N)C(=O)O; Orn(N3) = [N-]=[N+]=NCCC[C@H](N)C(=O)O; Aha = [N-]=[N+]=NCC[C@H](N)C(=O)O; Bpg = L-bishomopropargylglycine; Hpra = C#CCC[C@H](N)C(=O)O; Pra = C#CC[C@H](N)C(=O)O

For the substance “Asp-[Abu(N3)]-Ala-Tyr-His-Arg-Gly-Glu-Leu-Val-Trp-[Pra]-Thr-Lys-Lys (D[Aha]AYHRGELVW[Pra]TKK; triazole 2-12) [Cyclic peptide 6, [Abu(N3)] and [Pra] cross-linked through a triazole bond]”, the “Chemical resistance (rate of change in the binding amount)” value in data set [1] is “B (The rate of change in the binding amount was higher than 80% and equal to or lower than 90%)”. Also, the Relative binding activity result in data set [2] was “B (The relative binding activity was higher than 400% and equal to or lower than 800% of the binding activity of the cyclic peptide 5)”.

For “Asp-[Abu(N3)]-Ala-Tyr-His-Leu-Gly-Glu-Leu-Val-Trp-[Bpg]-Thr-Lys-Lys (D[Aha]AYHLGELVW[Bpg]TKK; triazole 2-12) [Cyclic peptide 13, [Abu(N3)] and [Bpg] cross-linked through a triazole bond]”, the “Chemical resistance (rate of change in the binding amount)” value in data set [1] is recorded as “A (The rate of change in the binding amount was higher than 90%)”. For the same substance, the Relative binding activity entry in data set [2] is “B (The relative binding activity was higher than 400% and equal to or lower than 800% of the binding activity of the cyclic peptide 5)”.

Turning to “Asp-[Abu(N3)]-Ala-Tyr-His-Leu-Gly-Glu-Leu-Val-Trp-[Hpg]-Thr-Lys-Lys (D[Aha]AYHLGELVW[Hpra]TKK; triazole 2-12) [Cyclic peptide 11, [Abu(N3)] and [Hpg] cross-linked through a triazole bond]”, the “Chemical resistance (rate of change in the binding amount)” value in data set [1] is recorded as “A (The rate of change in the binding amount was higher than 90%)”. Further, the Relative binding activity entry in data set [2] is recorded as “A (The relative binding activity was higher than 800% of the binding activity of the cyclic peptide 5)”.

Turning to “Asp-[Abu(N3)]-Ala-Tyr-His-Leu-Gly-Glu-Leu-Val-Trp-[Pra]-Thr-Lys-Lys (D[Aha]AYHLGELVW[Pra]TKK; triazole 2-12) [Cyclic peptide 7, [Abu(N3)] and [Pra] cross-linked through a triazole bond]”, the “Chemical resistance (rate of change in the binding amount)” value in data set [1] is on record as “A (The rate of change in the binding amount was higher than 90%)”. Also, the Relative binding activity result in data set [2] was “B (The relative binding activity was higher than 400% and equal to or lower than 800% of the binding activity of the cyclic peptide 5)”.

Turning to “Asp-[Bpg]-Ala-Tyr-His-Leu-Gly-Glu-Leu-Val-Trp-[Lys(N3)]-Thr-Lys-Lys (D[Bpg]AYHLGELVW[Lys(N3)]TKK; triazole 2-12) [Cyclic peptide 3, [Bpg] and [Lys(N3)] cross-linked through a triazole bond]”, in data set [1], the “Chemical resistance (rate of change in the binding amount)” value is listed as “A (The rate of change in the binding amount was higher than 90%)”. In addition, the Relative binding activity result in data set [2] is “A (The relative binding activity was higher than 800% of the binding activity of the cyclic peptide 5)”.

With “Asp-[Bpg]-Ala-Tyr-His-Leu-Gly-Glu-Leu-Val-Trp-[Nva(N3)]-Thr-Lys-Lys (D[Bpg″]AYHLGELVW[Orn(N3)]TKK; triazole 2-12; also: Xaa2 derived from gamma-azido-L-homoalanine) [Cyclic peptide 14, [Bpg] and [Nva(N3)] cross-linked through a triazole bond]”, the “Chemical resistance (rate of change in the binding amount)” value in data set [1] is given as “A (The rate of change in the binding amount was higher than 90%)”. For the same substance, the Relative binding activity entry in data set [2] is “B (The relative binding activity was higher than 400% and equal to or lower than 800% of the binding activity of the cyclic peptide 5)”; in data set [2] (listed as Example 14), “C or a higher grade”.

“Asp-[Cys]-Ala-Tyr-His-Arg-Gly-Glu-Leu-Val-Trp-[Cys]-Thr-Lys-Lys (DCAYHRGELVWCTKK; disulfide 2-12) [Cyclic peptide 19, two [Cys]'s cross-linked through a disulfide bond; comparative, reference compound]”: the “Chemical resistance (rate of change in the binding amount)” value in data set [1] is on record as “E (The rate of change in the binding amount was equal to or lower than 50%)”. The “chemical resistance (in words)” value in data set [1] (summary wording of the chemical resistance evaluation) is “poor”. Moreover, the Relative binding activity result in data set [2] is “A (The relative binding activity was higher than 800% of the binding activity of the cyclic peptide 5)”.

Source of the values: patent publication US11066446B2, “Cyclic peptide, affinity chromatography support, labeled antibody, antibody drug conjugate, and pharmaceutical preparation” (FUJIFILM Corporation, priority 2016, dated 2021).
